The Human Domainome abundance scans (Beltran et al. 2025)

B1: Storkhead-box protein 2, residues 64 to 141; numbered along this chain, Q9P2F5 (parent)
chain: SPISQSQFIPLGEILCLAISAMNSARKPVTQEALMEHLTTCFPGVPTPSQEILRHTLNTLVRERKIYPTPDGYFIVTP

Variants of: B1
Experiment: abundance fitness (aPCA) (normalised: wild type 0, dead -1); higher = more abundant; growth selection in yeast, the domain comes from the species named
Conditions: Homo sapiens

Abundance fitness of substitutions, site by site:
T40: E -0.048, L -0.077, A -0.158, Y -0.069, S -0.005, C 0.002, F -0.105, D -0.069, G -0.045, R 0.016, Q 0.021, P -0.551, N -0.133, M -0.104, I -0.066, V -0.013, K -0.042
S49: E -0.24, G -0.068, A -0.109, C -0.068, F -0.887, H -0.225
M35: F 0.04, V -0.092, P -0.361, G -0.049, L -0.058, Q -0.063, A 0.02, H 0.018, S 0.005, Y -0.164, T -0.024, K -0.299, E -0.113, I 0.044, R -0.103, D -0.191, C -0.038, W -0.124, N -0.249
P48: N -0.5, K -0.44, T -0.357, R -0.415, A -0.186, I -0.016, W -0.28, Q -0.156, C -0.085, F -0.141, L -0.259, S -0.418, E -0.447, H -0.354, Y -0.201, G -0.311, D -0.398, M -0.099
G44: R 0.117, D 0.073, S 0.016, W -0.103, L -0.091, Y -0.036, M -0.024, T -0.037, H -0.023, P -0.063, Q -0.055, V -0.111, A -0.054, C -0.046, N 0.024, F -0.156
T30: V -0.033, G -0.116, M -0.102, N -0.352, C -0.026, K -0.089, I -0.211, S 0.002, L -0.218, P -0.486, F -0.074, R -0.095, W -0.043, Q 0.01, D -0.067, A -0.166, Y -0.142
P46: W -0.174, V -0.086, I 0.015, Q -0.187, H -0.14, S -0.15, R -0.157, G -0.133, F -0.408, E -0.067, N -0.124, T -0.03, D -0.081, K -0.243, A -0.079, Y -0.402, L -0.128, C -0.078, M -0.107
L34: M -0.208, P -1.09, K -1, S -0.869, W -0.994, I -0.012, R -0.83, H -0.87, G -1.09, Q -0.774, V -0.045, E -1.08, F -0.576, T -0.576, C -0.048, A -0.45
L38: W -0.048, K -0.608, F 0.014, I -0.091, P -0.998, D -0.915, V -0.075, C -0.316, T -0.258, Q -0.865, H -0.388, Y -0.391, R -0.894, A -0.386, G -0.787, S -0.613
P43: H -0.001, D -0.119, Y -0.109, K 0.048, Q -0.057, T -0.028, C -0.135, I -0.092, G -0.101, M -0.21, E -0.006, A -0.137, W -0.23, S -0.023, V -0.076, F -0.184, L -0.09
F42: T 0.176, R 0.001, W -0.086, E 0.108, P -0.057, D 0.273, I 0.009, Q -0.661, A -0.05, N 0.106, M 0.033, L -0.08, V -0.045
Q31: R -0.061, P 0.018, H -0.209, G -0.064, I -0.074, N 0.004, A -0.045, Y -0.051, M -0.049, K -0.141, F -0.095, L -0.065, C 0.056, E 0.01, T 0.013, S -0.019, V -0.027
T47: V 0.071, L -0.073, S -0.092, N -0.151, K 0.021, H -0.166, P -0.191, Y -0.132, C -0.115, I 0.11, E -0.199, D -0.277, A -0.082, W -0.397, R -0.018, Q -0.067, G -0.197, F -0.273
C41: G 0.019, I -0.129, V -0.056, E 0.004, W -0.088, T -0.105, R -0.05, Q -0.292, F 0.01, K -0.11, S 0.021, H -0.096, M 0.032, N -0.024, D -0.055, P -0.534, Y -0.062, A 0.019
V45: D -0.207, L -0.05, Y 0.051, A -0.088, W 0.028, N -0.209, F 0.067, Q -0.007, M -0.109, I 0.026, P -0.168, T -0.031, R -0.06, S -0.113, E -0.155, K -0.222, H 0.078, C -0.003
H37: P -0.802, S -0.23, C -0.222, G -0.236, W -0.27, A -0.285, M -0.357, K -0.164, R -0.144, E -0.104, L -0.548, V -0.48, T -0.322, F -0.285, N -0.092, D -0.259, Y -0.159
V29: Y -0.592
E32: A -0.008, G -0.046, L -0.117, C -0.174, V -0.071, S -0.03, Q 0.041, N -0.126, D -0.088, I -0.072, R -0.077, Y -0.104, P -0.042, M -0.094, W -0.139, T 0.008, F -0.159, H 0.056, K -0.057
A33: D -0.154, H 0.019, V -0.127, Q 0.009, R -0.045, T -0.118, W -0.279, I -0.274, Y -0.167, G -0.038, L -0.061, P -0.339, N 0.1, C -0.188, E -0.067, K -0.028, S -0.001
T39: E -0.137, D 0.09, F -0.099, H -0.044, V 0.098, C -0.038, R 0.016, W -0.003, L -0.095, K -0.15, P -0.076, I 0.04, M -0.117, S -0.043, A -0.025, Y 0.024, G 0.019
E36: Y -0.144, K -0.008, H -0.082, D -0.012, A -0.063, S -0.001, T -0.006, N 0.054, L -0.058, V -0.102, G -0.028, W -0.187, M -0.059, R 0.003, Q 0.029, C -0.064, F -0.158, P -0.424
